Experimental data published in publication PMC12416549 (2024).

Molecular target: T1, TNFR1 (Homo sapiens, UniProt P19438)
T1 chain: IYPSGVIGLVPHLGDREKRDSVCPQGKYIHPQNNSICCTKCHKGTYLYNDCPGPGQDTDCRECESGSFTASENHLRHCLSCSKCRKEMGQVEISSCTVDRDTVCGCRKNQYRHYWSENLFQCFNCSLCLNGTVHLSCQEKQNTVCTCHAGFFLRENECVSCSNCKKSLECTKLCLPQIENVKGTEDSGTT
Assay: yeast display SC50

B1: I21P (designed binder)
chain: SMEEEVEKAAKEYEKKKKEAPEKHLEKLKAKDKEAAERFLKELEEAAKEYAKDEAKTMSEEEAKRRAKKYKEKVLLSELSEEEQKEIKEAEEKLVRTILKYVEEAAK
apparent Kd (screen): 13.8 nM

B2: I98W (designed binder)
chain: SMEEEVEKAAKEYEKKKKEAIEKHLEKLKAKDKEAAERFLKELEEAAKEYAKDEAKTMSEEEAKRRAKKYKEKVLLSELSEEEQKEIKEAEEKLVRTWLKYVEEAAK
apparent Kd (screen): 1.86 nM

B3: L76D (designed binder)
chain: SMEEEVEKAAKEYEKKKKEAIEKHLEKLKAKDKEAAERFLKELEEAAKEYAKDEAKTMSEEEAKRRAKKYKEKVLDSELSEEEQKEIKEAEEKLVRTILKYVEEAAK
apparent Kd (screen): 1.16 nM

B4: K11C (designed binder)
chain: SMEEEVEKAACEYEKKKKEAIEKHLEKLKAKDKEAAERFLKELEEAAKEYAKDEAKTMSEEEAKRRAKKYKEKVLLSELSEEEQKEIKEAEEKLVRTILKYVEEAAK
apparent Kd (screen): 1.69 nM

B5: K88G (designed binder)
chain: SMEEEVEKAAKEYEKKKKEAIEKHLEKLKAKDKEAAERFLKELEEAAKEYAKDEAKTMSEEEAKRRAKKYKEKVLLSELSEEEQKEIGEAEEKLVRTILKYVEEAAK
apparent Kd (screen): 0.49 nM

B6: K16N (designed binder)
chain: SMEEEVEKAAKEYEKNKKEAIEKHLEKLKAKDKEAAERFLKELEEAAKEYAKDEAKTMSEEEAKRRAKKYKEKVLLSELSEEEQKEIKEAEEKLVRTILKYVEEAAK
apparent Kd (screen): 0.335 nM

B7: K52W (designed binder)
chain: SMEEEVEKAAKEYEKKKKEAIEKHLEKLKAKDKEAAERFLKELEEAAKEYAWDEAKTMSEEEAKRRAKKYKEKVLLSELSEEEQKEIKEAEEKLVRTILKYVEEAAK
apparent Kd (screen): 5.31 nM

B8: A105E (designed binder)
chain: SMEEEVEKAAKEYEKKKKEAIEKHLEKLKAKDKEAAERFLKELEEAAKEYAKDEAKTMSEEEAKRRAKKYKEKVLLSELSEEEQKEIKEAEEKLVRTILKYVEEEAK
apparent Kd (screen): 0.446 nM

B9: A35M (designed binder)
chain: SMEEEVEKAAKEYEKKKKEAIEKHLEKLKAKDKEMAERFLKELEEAAKEYAKDEAKTMSEEEAKRRAKKYKEKVLLSELSEEEQKEIKEAEEKLVRTILKYVEEAAK
apparent Kd (screen): 0.446 nM

B10: E14W (designed binder)
chain: SMEEEVEKAAKEYWKKKKEAIEKHLEKLKAKDKEAAERFLKELEEAAKEYAKDEAKTMSEEEAKRRAKKYKEKVLLSELSEEEQKEIKEAEEKLVRTILKYVEEAAK
apparent Kd (screen): 10.4 nM

B11: L94W (designed binder)
chain: SMEEEVEKAAKEYEKKKKEAIEKHLEKLKAKDKEAAERFLKELEEAAKEYAKDEAKTMSEEEAKRRAKKYKEKVLLSELSEEEQKEIKEAEEKWVRTILKYVEEAAK
apparent Kd (screen): 0.446 nM

B12: L99H (designed binder)
chain: SMEEEVEKAAKEYEKKKKEAIEKHLEKLKAKDKEAAERFLKELEEAAKEYAKDEAKTMSEEEAKRRAKKYKEKVLLSELSEEEQKEIKEAEEKLVRTIHKYVEEAAK
apparent Kd (screen): 4.83 nM

B13: Y70R (designed binder)
chain: SMEEEVEKAAKEYEKKKKEAIEKHLEKLKAKDKEAAERFLKELEEAAKEYAKDEAKTMSEEEAKRRAKKRKEKVLLSELSEEEQKEIKEAEEKLVRTILKYVEEAAK
apparent Kd (screen): 5.31 nM

B14: E92M (designed binder)
chain: SMEEEVEKAAKEYEKKKKEAIEKHLEKLKAKDKEAAERFLKELEEAAKEYAKDEAKTMSEEEAKRRAKKYKEKVLLSELSEEEQKEIKEAEMKLVRTILKYVEEAAK
apparent Kd (screen): 12.5 nM

B15: E89Q (designed binder)
chain: SMEEEVEKAAKEYEKKKKEAIEKHLEKLKAKDKEAAERFLKELEEAAKEYAKDEAKTMSEEEAKRRAKKYKEKVLLSELSEEEQKEIKQAEEKLVRTILKYVEEAAK
apparent Kd (screen): 1.05 nM

B16: R66I (designed binder)
chain: SMEEEVEKAAKEYEKKKKEAIEKHLEKLKAKDKEAAERFLKELEEAAKEYAKDEAKTMSEEEAKRIAKKYKEKVLLSELSEEEQKEIKEAEEKLVRTILKYVEEAAK
apparent Kd (screen): 22.2 nM

B17: K29W (designed binder)
chain: SMEEEVEKAAKEYEKKKKEAIEKHLEKLWAKDKEAAERFLKELEEAAKEYAKDEAKTMSEEEAKRRAKKYKEKVLLSELSEEEQKEIKEAEEKLVRTILKYVEEAAK
apparent Kd (screen): 0.869 nM

B18: K107W (designed binder)
chain: SMEEEVEKAAKEYEKKKKEAIEKHLEKLKAKDKEAAERFLKELEEAAKEYAKDEAKTMSEEEAKRRAKKYKEKVLLSELSEEEQKEIKEAEEKLVRTILKYVEEAAW
apparent Kd (screen): 5.84 nM

B19: E12P (designed binder)
chain: SMEEEVEKAAKPYEKKKKEAIEKHLEKLKAKDKEAAERFLKELEEAAKEYAKDEAKTMSEEEAKRRAKKYKEKVLLSELSEEEQKEIKEAEEKLVRTILKYVEEAAK
apparent Kd (screen): 9.41 nM

B20: L28D (designed binder)
chain: SMEEEVEKAAKEYEKKKKEAIEKHLEKDKAKDKEAAERFLKELEEAAKEYAKDEAKTMSEEEAKRRAKKYKEKVLLSELSEEEQKEIKEAEEKLVRTILKYVEEAAK
apparent Kd (screen): 0.956 nM

B21: K48S (designed binder)
chain: SMEEEVEKAAKEYEKKKKEAIEKHLEKLKAKDKEAAERFLKELEEAASEYAKDEAKTMSEEEAKRRAKKYKEKVLLSELSEEEQKEIKEAEEKLVRTILKYVEEAAK
apparent Kd (screen): 0.446 nM

B22: A63F (designed binder)
chain: SMEEEVEKAAKEYEKKKKEAIEKHLEKLKAKDKEAAERFLKELEEAAKEYAKDEAKTMSEEEFKRRAKKYKEKVLLSELSEEEQKEIKEAEEKLVRTILKYVEEAAK
apparent Kd (screen): 10.4 nM

B23: S59C (designed binder)
chain: SMEEEVEKAAKEYEKKKKEAIEKHLEKLKAKDKEAAERFLKELEEAAKEYAKDEAKTMCEEEAKRRAKKYKEKVLLSELSEEEQKEIKEAEEKLVRTILKYVEEAAK
apparent Kd (screen): 2.73 nM

B24: A105Y (designed binder)
chain: SMEEEVEKAAKEYEKKKKEAIEKHLEKLKAKDKEAAERFLKELEEAAKEYAKDEAKTMSEEEAKRRAKKYKEKVLLSELSEEEQKEIKEAEEKLVRTILKYVEEYAK
apparent Kd (screen): 2.73 nM

B25: E49Q (designed binder)
chain: SMEEEVEKAAKEYEKKKKEAIEKHLEKLKAKDKEAAERFLKELEEAAKQYAKDEAKTMSEEEAKRRAKKYKEKVLLSELSEEEQKEIKEAEEKLVRTILKYVEEAAK
apparent Kd (screen): 3 nM

B26: L94A (designed binder)
chain: SMEEEVEKAAKEYEKKKKEAIEKHLEKLKAKDKEAAERFLKELEEAAKEYAKDEAKTMSEEEAKRRAKKYKEKVLLSELSEEEQKEIKEAEEKAVRTILKYVEEAAK
apparent Kd (screen): 0.49 nM
